Results: the supplement of paper PMC7125110
± gives the standard error. This sample holds only a part of the variants without activity.

B1: glmS ribozyme (parent)
chain: AUAAAAGCGCCAGAACUACAGAAAUGUAGUUGACGAGGAGGAGGUUUAUCGAAUUUUCGGCGGAUGCCUCCAAA

Variants of: B1
Assay: self-cleavage kobs at 2500 uM GlcN6P; higher = faster cleavage; RNA array
Details: with glucosamine-6-phosphate
Method in brief: (§1)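 In situ transcription by E. coli RNA polymerase produced barcoded ribozyme variants on sequenced MiSeq chips, and a hybridised Cy3 probe tracked them at 37 °C. Glucosamine-6-phosphate was flowed in at 40 μM to 10 mM in HEPES/KCl/Mg(OAc)2 buffer. kcat and KM were taken from weighted Michaelis–Menten fits of kobs values from exponential decay fits.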

Row | Variant | self-cleavage kobs at 2500 uM GlcN6P
1 | AUAAAAGCGCCAGAACUACAGAAAUGUAAUUGACGAGGAGAAGGUUUAUCGAAUUUUCGGCGGAUGCCUCCAAA [G29A G41A] | 6.8e-05 ± 2e-05 s⁻¹
2 | AUAAAAGCGCCAGAACUACAGAAAUUUAGUUAACGAGGAGGAGGUUUAUCGAAUUUUCGGCGAAUGCCUCUAAA [G26U G32A G63A C71U] | < 1e-05 s⁻¹
3 | AUAAAAGCGCCAGAAGUACAGAAAUGUAUUUGAGGAGGAGGAGGUUUAUCGAAUUUUCGGCGGAUGCCUCCAAA [C16G G29U C34G] | < 1e-05 s⁻¹
4 | AUAAAAGCGCCAGAACUACAGAAAUGUACUUGACGAGGAGGAGGUUUAUUGAGUUUUCGGCGGAUGCCUCUAAA [G29C C50U A53G C71U] | < 1e-05 s⁻¹
5 | AUAAAAGCGCCAGAAUUACAGAAAUGUAGUUGAGGAGGAGGAGGUUUAUCGACUUUUCGGCGGAUGCCUCCAAA [C16U C34G A53C] | < 1e-05 s⁻¹
6 | AUAAAAGCGCCAGAAUUACAGAAAUGUAGGUAACGAGGAGGAGGUUUAUCGAAUUUUCGGCGGAUGCUUCCAAA [C16U U30G G32A C68U] | 7.75e-05 ± 3.2e-05 s⁻¹
7 | AUAAAAGCGCCAGAAUUACAGAAAUGUAGUCGACGAGGAGGAGGUCUAUCGAAUUUUCGGCGGAUGCCUUCAAA [C16U U31C U46C C70U] | 0.000342 ± 0.00015 s⁻¹
8 | AUAAAAGCGCCAGAAUUACAGAAAUGUAGUUGACGACGAGGAGGUUUAUCCAAUUUUCCCCGGAUGCCUCCAAA [C16U G37C G51C G59C G60C] | < 1e-05 s⁻¹
9 | AUAAAAGCGCCAGAACUACAGAACUUUAGUUGACGAGGAUGAGGUUUAUCGAAUUUUCGGCGGAUGCCUCCAAA [A24C G26U G40U] | 0.00202 ± 0.00051 s⁻¹
10 | AUAAAAGCGCCAGAACUACAGAAAUGUACUUGACGAGUAGGAGGUUUAUCGAAUUCUCGGCGGAUGCCUCCAAA [G29C G38U U56C] | < 1e-05 s⁻¹
11 | AUAAAAGCGCCAGAAGUACAGAAAUGUAGUUUACGAGGAGGAGAUUUAUCGAAUUUUCGACGGAUGCCUCCAAA [C16G G32U G44A G60A] | < 1e-05 s⁻¹
12 | AUAAAAGCGCCAGAACUACAGAAAUGUAAAUGACGAGGAGGAGGUUUAUCGAGUUUUCGGCGGAGGCCUCCAAA [G29A U30A A53G U65G] | 6.03e-05 ± 1.7e-05 s⁻¹
13 | AUAAAAGCGCCAGAAGUACAGAAAUGUAGUUGACGAGGAGGAGGUUUCUCGAAUUUUCGUCGGUUGCCUCCAAA [C16G A48C G60U A64U] | < 1e-05 s⁻¹
14 | AUAAAAGCGCCAGAAUUACAGAAAUGUAGUUGAUGAGGAGGAGGUUCAUCGAAUUUUCUGCGGAUGCCUCUAAA [C16U C34U U47C G59U C71U] | < 1e-05 s⁻¹
15 | AUAAAAGCGCCAGAAGUACAGAAAUGUAGCUGCCGAGGAGGAGGUUUAUCGAAUUUUCGGCGGAUGCUUCCAAA [C16G U30C A33C C68U] | < 1e-05 s⁻¹
16 | AUAAAAGCGCCAGAAUUACAGAAAUGUAGUUGACGAGGAGGAGGUUUAUCCAACUUGCGGCGGAUGCCUCCAAA [C16U G51C U54C U57G] | < 1e-05 s⁻¹

Row | Variant | self-cleavage kobs at 2500 uM GlcN6P
17 | AUAAAAGCGCCAGAAUUACAGAAAUGUAGUUGACUAGGAGGAGGUUUAUCGAAUUUUCGGCUUAUGCCUCCAAA [C16U G35U G62U G63U] | < 1e-05 s⁻¹
18 | AUAAAAGCGCCAGAAUUACAGAAAUGUAUUUGACGAGGAGGAGGUUUAUCGAUUUUUCGGCGGAUGCCUCCAAA [C16U G29U A53U] | 0.00254 ± 0.00062 s⁻¹
19 | AUAAAAGCGCCAGAAGUACAGAAAUGUAGUUGACGAGGAGGAGGUUUAUCGAAUUUUCUCCGGAUGCGUCCAAA [C16G G59U G60C C68G] | < 1e-05 s⁻¹
20 | AUAAAAGCGCCAGAACUAAAGAAAUGUAGUCGACGAGGAGGAGGGUUAUCGAAUUUUCGGCGGAUGCCUCCAAA [C19A U31C U45G] | 0.000156 ± 4.3e-05 s⁻¹
21 | AUAAAAGCGCCAGAACUAUAGAAAUGUAGUUGACGAGGAGCAGGUUUAUCGAAUCUUCGGCGGAUGCCUACAAA [C19U G41C U55C C70A] | 0.000203 ± 9.2e-05 s⁻¹
22 | AUAAAAGCGCCAGAAGUACAGAAAUGUAGUUGACGAGGAGGAUGAUUAUCGAAUUUUCGGCGGAGGCUUUCAAA [C16G G43U U45A U65G C68U C70U] | < 1e-05 s⁻¹
23 | AUAAAAGCGCCAGAACUACAGAAAUUUAGUUGACGAGGAGGAGGUUUAUCGAAUUUUCGGCGGAUUCCUCCAAA [G26U G66U] | 0.000774 ± 0.00023 s⁻¹
24 | AUAAAAGCGCCAGAACUACAGAAAUGUACUUGACGAGGAGGGGGUUUAUCGAAUUUUCGGCGGAUGGCUCCAAA [G29C A42G C67G] | 0.000111 ± 5.1e-05 s⁻¹
25 | AUAAAAGCGCCAGAACUACAGAAAUUUAGUUGCAGAGGAGGAGGUUGAUCGAAUUUUCGGCGGAUGCCUCCAAA [G26U A33C C34A U47G] | < 1e-05 s⁻¹
26 | AUAAAAGCGCCAGAACUAAAGAAAUGUAGCUGACGAGGAGGAGGUUUAUCGAAUUUUCGGCGGAUGCCUCCAAA [C19A U30C] | 7.18e-05 ± 2.3e-05 s⁻¹
27 | AUAAAAGCGCCAGAAUUACAGAAAUGUACUUGACGAGGAGGAGGUUUAUCGAAUUUUCGGCGGGUCCCUCCAAA [C16U G29C A64G G66C] | 0.000347 ± 0.00011 s⁻¹
28 | AUAAAAGCGCCAGAAUUACAGAAAUGUAGUUGACGAGGAGGAGGUCUAUCGACUUUUCGGCGGAUGCCUCCAAA [C16U U46C A53C] | 0.000978 ± 0.0002 s⁻¹
29 | AUAAAAGCGCCAGAACUACAGAAAUGUAAUUGACGAGGAGGACGUUUAUCGAAUUUUCGGCGGAUGCGUCCAAA [G29A G43C C68G] | 0.00377 ± 0.0014 s⁻¹
30 | AUAAAAGCGCCAGAACUACAGAAAUGUAAUUGACGAGGAGGAGGUUUAUCGAAUUUUCGUCGGGUGCCUCCAAA [G29A G60U A64G] | < 1e-05 s⁻¹
31 | AUAAAAGCGCCAGAAUUACAGAAAUGUAGUUCACGGGGAGGAGGUUUAUCGAAUUUUGCGAGGAUGCCUCCAAA [C16U G32C A36G C58G G59C C61A] | < 1e-05 s⁻¹
32 | AUAAAAGCGCCAGAAUUACAGAAAUGUAGUUGACGAGGAGGAUGGUUAUCGAAUUUUCGGCGGAUGCCUCCAAA [C16U G43U U45G] | 0.00141 ± 0.00031 s⁻¹

Variants of: B1
Assay: self-cleavage kobs at 10000 uM GlcN6P; higher = faster cleavage; RNA array
Details: with glucosamine-6-phosphate
Method in brief: as §1

Row | Variant | self-cleavage kobs at 10000 uM GlcN6P
33 | AUAAAAGCGCCAGAACUACAGAAAUGUAAUUGACGAGGAGAAGGUUUAUCGAAUUUUCGGCGGAUGCCUCCAAA [G29A G41A] | 5.78e-05 ± 1.5e-05 s⁻¹
34 | AUAAAAGCGCCAGAAUUACAGAAAUGUAGGUAACGAGGAGGAGGUUUAUCGAAUUUUCGGCGGAUGCUUCCAAA [C16U U30G G32A C68U] | 0.000157 ± 5.1e-05 s⁻¹
35 | AUAAAAGCGCCAGAACUACAGAACUUUAGUUGACGAGGAUGAGGUUUAUCGAAUUUUCGGCGGAUGCCUCCAAA [A24C G26U G40U] | 0.00158 ± 0.00035 s⁻¹
36 | AUAAAAGCGCCAGAAUUACAGAAAUGUAUUUGACGAGGAGGAGGUUUAUCGAUUUUUCGGCGGAUGCCUCCAAA [C16U G29U A53U] | 0.00591 ± 0.00094 s⁻¹
37 | AUAAAAGCGCCAGAACUAAAGAAAUGUAGCUGACGAGGAGGAGGUUUAUCGAAUUUUCGGCGGAUGCCUCCAAA [C19A U30C] | 6.71e-05 ± 2.2e-05 s⁻¹
